The results in this text go back to patent US20030138894.

The subject of the data set is ACE-2 inhibitor peptide (the most active ACE-2 inhibitor peptide, Example 9).

For Angiotensin converting enzyme (ACE), the “hydrolysis of the substrate, hip his-leu (250 mM) by ACE (1.5 nM)” value was “the inhibitor did not affect the hydrolysis of the substrate, hip his-leu (250 mM) by ACE (1.5 nM), even at 25 mM”. As to recombinant human-ACE-2, the “conversion of angiotensin I to A1-9 by ACE-2” value is “This peptide also inhibited conversion of angiotensin I to A1-9 by ACE-2”.
